Measurements taken from patent US20200262877A1, “ION CHANNEL-BINDING PEPTIDES AND METHODS OF USE THEREOF” (priority 2017, published 2020).

Experiments:
[1] = test system: GABA; experiment: Ion channel panel (IonWorks Barracuda): GABA; type: cell-based; conditions: 100% = no change, <100% = inhibition
Method in brief: (§1)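 Transfected HEK293 or CHO cells were exposed for at least 5 min to peptides at 200 nM and 20 μM final, tested in duplicate, in HEPES-buffered physiological saline. Activation was taken as peptide-plus-agonist current over control current ×100, and inhibition as 1 minus that ratio ×100. Each channel's control was its own reference compound.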

[2] = biological target: T1, Kir2.1 (Homo sapiens, UniProt P63252); experiment: Ion channel panel (IonWorks Barracuda): Kir2.1; type: cell-based; conditions: 100% = no change, <100% = inhibition
T1 construct: host or cells: HEK293 or CHO
Method in brief: as §1

[3] = biological target: T2, α4β2 (Homo sapiens, UniProt P17787+P43681); experiment: Ion channel panel (IonWorks Barracuda): α4β2; type: cell-based; conditions: 100% = no change, <100% = inhibition
T2 construct: host or cells: HEK293 or CHO
T2 sequence (P43681 29-627): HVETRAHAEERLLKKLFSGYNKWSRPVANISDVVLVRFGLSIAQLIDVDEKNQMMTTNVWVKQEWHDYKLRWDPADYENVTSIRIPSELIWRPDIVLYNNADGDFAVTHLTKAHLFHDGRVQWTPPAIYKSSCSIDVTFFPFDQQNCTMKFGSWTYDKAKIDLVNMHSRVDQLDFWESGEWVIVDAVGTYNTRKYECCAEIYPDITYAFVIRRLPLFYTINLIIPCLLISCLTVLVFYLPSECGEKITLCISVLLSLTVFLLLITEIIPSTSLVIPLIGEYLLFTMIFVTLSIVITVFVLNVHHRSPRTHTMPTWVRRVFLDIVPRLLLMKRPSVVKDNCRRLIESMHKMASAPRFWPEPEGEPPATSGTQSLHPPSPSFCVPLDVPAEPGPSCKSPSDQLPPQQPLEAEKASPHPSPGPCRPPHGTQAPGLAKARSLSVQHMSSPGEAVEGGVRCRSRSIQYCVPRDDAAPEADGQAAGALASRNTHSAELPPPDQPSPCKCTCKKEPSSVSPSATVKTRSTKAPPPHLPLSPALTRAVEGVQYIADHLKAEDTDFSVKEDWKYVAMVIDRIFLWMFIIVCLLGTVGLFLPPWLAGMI
T2 sequence (P17787 26-502): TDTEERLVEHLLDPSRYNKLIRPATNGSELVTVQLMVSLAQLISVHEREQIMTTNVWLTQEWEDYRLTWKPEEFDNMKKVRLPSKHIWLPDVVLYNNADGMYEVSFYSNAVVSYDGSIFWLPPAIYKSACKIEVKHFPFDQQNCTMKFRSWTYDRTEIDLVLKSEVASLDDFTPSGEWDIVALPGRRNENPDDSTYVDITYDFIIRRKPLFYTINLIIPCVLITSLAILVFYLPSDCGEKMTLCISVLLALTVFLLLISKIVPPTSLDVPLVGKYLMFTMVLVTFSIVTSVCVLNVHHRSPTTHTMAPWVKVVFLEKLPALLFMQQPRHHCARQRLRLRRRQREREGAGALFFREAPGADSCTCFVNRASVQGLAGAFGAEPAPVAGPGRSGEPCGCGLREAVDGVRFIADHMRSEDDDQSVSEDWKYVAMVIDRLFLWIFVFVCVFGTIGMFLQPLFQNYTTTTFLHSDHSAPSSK
Method in brief: as §1

[4] = biological target: T3, Nav1.7 (Homo sapiens, UniProt Q15858); experiment: cell-based; type: cell-based; conditions: 100% = no change; for Activity of Nav1.7 with peptide, expressed as a percentage of the reference compound: peptide at 0.2 μM; for Activity of Nav1.7 with peptide (percentage of the reference compound): peptide at 20 μM
T3 construct: host or cells: HEK293 or CHO
T3 sequence (Q15858 whole entry): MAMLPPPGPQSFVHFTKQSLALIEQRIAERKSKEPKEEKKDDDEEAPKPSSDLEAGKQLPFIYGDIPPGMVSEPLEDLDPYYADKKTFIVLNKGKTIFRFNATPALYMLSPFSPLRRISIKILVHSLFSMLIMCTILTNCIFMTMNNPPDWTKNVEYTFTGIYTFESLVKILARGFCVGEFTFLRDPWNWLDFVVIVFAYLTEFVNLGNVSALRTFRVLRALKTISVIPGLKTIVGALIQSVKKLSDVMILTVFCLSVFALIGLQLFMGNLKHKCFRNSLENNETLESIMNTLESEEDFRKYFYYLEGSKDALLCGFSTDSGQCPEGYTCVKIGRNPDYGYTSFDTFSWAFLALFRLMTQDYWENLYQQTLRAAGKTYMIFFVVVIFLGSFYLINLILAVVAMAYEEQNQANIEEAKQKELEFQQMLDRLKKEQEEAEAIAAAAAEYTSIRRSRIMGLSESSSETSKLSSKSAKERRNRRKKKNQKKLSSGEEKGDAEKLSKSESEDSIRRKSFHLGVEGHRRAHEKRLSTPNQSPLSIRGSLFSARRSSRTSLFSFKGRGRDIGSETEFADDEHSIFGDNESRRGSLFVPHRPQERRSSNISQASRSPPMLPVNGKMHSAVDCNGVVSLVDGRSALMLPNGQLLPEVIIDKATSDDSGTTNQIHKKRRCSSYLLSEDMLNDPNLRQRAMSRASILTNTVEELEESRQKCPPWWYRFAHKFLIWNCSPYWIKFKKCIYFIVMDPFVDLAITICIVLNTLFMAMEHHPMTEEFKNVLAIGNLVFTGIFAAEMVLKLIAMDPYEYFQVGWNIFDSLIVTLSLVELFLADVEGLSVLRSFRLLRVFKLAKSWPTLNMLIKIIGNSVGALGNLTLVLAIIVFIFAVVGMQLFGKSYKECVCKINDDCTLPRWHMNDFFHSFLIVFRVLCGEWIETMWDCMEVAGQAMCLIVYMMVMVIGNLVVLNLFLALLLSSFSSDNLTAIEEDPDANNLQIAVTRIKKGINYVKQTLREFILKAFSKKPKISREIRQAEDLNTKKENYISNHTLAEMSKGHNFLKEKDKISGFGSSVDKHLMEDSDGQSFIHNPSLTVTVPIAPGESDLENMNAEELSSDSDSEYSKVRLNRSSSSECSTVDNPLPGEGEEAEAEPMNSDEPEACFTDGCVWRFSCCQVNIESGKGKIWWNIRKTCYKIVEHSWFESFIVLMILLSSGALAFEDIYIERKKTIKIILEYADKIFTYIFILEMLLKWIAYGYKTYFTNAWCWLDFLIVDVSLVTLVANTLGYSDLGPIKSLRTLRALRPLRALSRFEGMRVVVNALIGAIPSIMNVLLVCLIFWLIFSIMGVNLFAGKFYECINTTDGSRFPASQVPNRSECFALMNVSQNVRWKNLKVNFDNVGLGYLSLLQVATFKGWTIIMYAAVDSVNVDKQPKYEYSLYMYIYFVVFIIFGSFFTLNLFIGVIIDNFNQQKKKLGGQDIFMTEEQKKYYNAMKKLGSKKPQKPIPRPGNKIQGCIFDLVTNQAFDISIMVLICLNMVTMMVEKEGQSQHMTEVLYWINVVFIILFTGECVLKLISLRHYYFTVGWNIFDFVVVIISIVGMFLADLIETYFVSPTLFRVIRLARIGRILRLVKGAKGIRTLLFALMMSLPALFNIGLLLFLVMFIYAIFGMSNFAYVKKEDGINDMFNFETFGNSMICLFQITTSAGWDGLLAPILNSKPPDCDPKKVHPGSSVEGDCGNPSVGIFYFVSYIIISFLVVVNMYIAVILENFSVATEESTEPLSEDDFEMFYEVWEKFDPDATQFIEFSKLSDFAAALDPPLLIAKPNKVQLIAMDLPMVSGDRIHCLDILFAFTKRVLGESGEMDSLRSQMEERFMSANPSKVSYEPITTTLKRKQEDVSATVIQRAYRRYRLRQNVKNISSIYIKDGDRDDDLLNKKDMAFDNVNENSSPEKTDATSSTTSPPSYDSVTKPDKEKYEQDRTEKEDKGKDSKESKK

[5] = biological target: Nav1.5 (Homo sapiens, UniProt Q14524); experiment: in vitro; conditions: 100% = no change; for Activity of Nav1.5 with peptide, expressed as a percentage of the reference compound: peptide at 0.2 μM; for Activity of Nav1.5 with peptide (percentage of the reference compound): peptide at 20 μM
Nav1.5, sequence (Q14524 whole entry): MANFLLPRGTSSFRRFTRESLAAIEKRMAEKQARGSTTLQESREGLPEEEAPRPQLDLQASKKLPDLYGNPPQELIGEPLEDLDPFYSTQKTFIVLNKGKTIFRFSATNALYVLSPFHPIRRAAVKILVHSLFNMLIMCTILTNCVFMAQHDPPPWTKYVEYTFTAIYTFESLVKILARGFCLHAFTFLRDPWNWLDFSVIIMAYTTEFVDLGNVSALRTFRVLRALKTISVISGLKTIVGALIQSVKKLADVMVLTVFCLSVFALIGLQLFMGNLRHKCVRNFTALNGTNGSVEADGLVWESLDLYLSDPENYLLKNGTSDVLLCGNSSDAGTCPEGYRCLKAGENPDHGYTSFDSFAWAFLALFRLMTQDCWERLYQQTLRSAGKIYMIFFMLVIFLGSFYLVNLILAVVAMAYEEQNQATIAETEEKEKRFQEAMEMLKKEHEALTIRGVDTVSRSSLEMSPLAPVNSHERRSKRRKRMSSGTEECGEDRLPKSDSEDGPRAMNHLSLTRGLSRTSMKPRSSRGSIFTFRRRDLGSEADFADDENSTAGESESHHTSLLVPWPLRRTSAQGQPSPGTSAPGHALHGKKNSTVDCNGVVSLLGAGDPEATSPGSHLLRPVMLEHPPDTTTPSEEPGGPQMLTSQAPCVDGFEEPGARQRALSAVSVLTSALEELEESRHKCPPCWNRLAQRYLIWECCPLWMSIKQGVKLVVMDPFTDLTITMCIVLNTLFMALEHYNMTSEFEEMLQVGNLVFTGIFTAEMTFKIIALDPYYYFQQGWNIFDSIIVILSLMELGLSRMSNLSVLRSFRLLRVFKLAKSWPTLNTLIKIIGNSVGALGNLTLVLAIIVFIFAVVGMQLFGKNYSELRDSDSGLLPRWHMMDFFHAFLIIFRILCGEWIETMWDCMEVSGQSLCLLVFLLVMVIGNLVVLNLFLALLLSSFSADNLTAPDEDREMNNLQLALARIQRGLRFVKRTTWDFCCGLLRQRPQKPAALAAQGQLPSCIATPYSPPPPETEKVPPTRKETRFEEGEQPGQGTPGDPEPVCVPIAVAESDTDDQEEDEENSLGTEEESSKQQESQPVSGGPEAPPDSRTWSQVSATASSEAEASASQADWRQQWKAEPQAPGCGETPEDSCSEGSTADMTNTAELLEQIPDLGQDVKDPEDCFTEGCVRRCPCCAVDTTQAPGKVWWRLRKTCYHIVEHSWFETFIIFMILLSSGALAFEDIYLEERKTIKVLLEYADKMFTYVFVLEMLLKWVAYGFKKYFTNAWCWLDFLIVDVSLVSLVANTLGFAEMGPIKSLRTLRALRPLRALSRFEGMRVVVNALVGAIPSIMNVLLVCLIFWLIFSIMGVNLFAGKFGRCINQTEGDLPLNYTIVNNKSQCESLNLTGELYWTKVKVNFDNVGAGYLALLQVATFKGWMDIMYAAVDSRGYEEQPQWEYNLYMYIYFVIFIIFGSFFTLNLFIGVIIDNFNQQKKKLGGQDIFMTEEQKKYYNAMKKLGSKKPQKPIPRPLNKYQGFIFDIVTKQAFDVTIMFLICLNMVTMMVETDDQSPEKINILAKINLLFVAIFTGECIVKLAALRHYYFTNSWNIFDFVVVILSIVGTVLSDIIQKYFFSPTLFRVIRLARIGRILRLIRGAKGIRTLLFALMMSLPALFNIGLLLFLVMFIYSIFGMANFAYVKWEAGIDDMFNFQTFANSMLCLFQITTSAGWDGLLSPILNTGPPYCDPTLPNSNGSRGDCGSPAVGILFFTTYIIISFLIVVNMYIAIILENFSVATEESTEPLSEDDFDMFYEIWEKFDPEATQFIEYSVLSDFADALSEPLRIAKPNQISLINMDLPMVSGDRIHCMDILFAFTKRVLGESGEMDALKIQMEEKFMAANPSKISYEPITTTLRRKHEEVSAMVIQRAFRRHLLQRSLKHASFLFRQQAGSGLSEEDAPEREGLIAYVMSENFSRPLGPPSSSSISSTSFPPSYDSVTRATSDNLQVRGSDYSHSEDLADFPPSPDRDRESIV
Method in brief: as §1

[6] = biological target: hERG (Homo sapiens, UniProt Q12809); experiment: in vitro; conditions: 100% = no change, <100% = inhibition
Method in brief: as §1

[7] = biological target: T4, α3β4 (Homo sapiens, UniProt P30926+P32297); experiment: Ion channel panel (IonWorks Barracuda): α3β4; type: cell-based; conditions: 100% = no change, <100% = inhibition
T4 construct: host or cells: HEK293 or CHO
Method in brief: as §1

[8] = biological target: T5, NR2A (Homo sapiens, UniProt Q12879); experiment: Ion channel panel (IonWorks Barracuda): NR2A; type: cell-based; conditions: 100% = no change, <100% = inhibition
T5 construct: host or cells: HEK293 or CHO
Method in brief: as §1

[9] = biological target: T6, Kv1.3 (Homo sapiens, UniProt P22001); experiment: cell-based; type: cell-based; conditions: 100% = no change, <100% = inhibition
T6 construct: host or cells: HEK293 or CHO
Method in brief: as §1

[10] = biological target: T7, Kv1.1 (Homo sapiens, UniProt Q09470); experiment: cell-based; type: cell-based; conditions: 100% = no change, <100% = inhibition
T7 construct: host or cells: HEK293 or CHO
Method in brief: as §1

[11] = biological target: T8, Kv1.2 (Homo sapiens, UniProt P16389); experiment: cell-based; type: cell-based; conditions: 100% = no change, <100% = inhibition
T8 construct: host or cells: HEK293 or CHO
Method in brief: as §1

[12] = biological target: T9, NR2B (Homo sapiens, UniProt Q13224); experiment: Ion channel panel (IonWorks Barracuda): NR2B; type: cell-based; conditions: 100% = no change, <100% = inhibition
T9 construct: host or cells: HEK293 or CHO
Method in brief: as §1

[13] = biological target: T10, 5HT3a (Homo sapiens, UniProt P46098); experiment: Ion channel panel (IonWorks Barracuda): 5HT3a; type: cell-based
T10 construct: host or cells: HEK293 or CHO
T10 sequence (P46098 whole entry, looked up): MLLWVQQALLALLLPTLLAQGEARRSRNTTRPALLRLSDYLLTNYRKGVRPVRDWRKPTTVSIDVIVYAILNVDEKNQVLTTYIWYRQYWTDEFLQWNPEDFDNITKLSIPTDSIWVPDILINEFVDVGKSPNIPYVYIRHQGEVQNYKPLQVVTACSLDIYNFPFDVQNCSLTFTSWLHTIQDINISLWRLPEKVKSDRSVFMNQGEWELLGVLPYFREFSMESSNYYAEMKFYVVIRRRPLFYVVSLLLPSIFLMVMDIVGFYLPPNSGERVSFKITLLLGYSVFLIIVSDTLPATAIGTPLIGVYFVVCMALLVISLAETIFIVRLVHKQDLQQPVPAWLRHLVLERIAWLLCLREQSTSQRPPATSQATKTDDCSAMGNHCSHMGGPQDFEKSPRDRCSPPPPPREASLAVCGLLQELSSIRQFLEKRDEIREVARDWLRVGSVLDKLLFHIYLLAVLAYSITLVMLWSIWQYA
Method in brief: as §1

[14] = biological target: T11, TRPA1 (Homo sapiens, UniProt O75762); experiment: Ion channel panel (IonWorks Barracuda): TRPA1; type: cell-based; conditions: 100% = no change, <100% = inhibition
T11 construct: host or cells: HEK293 or CHO
Method in brief: as §1

[15] = biological target: T12, Kv2.1 (Homo sapiens, UniProt Q14721); experiment: cell-based; conditions: 100% = no change, <100% = inhibition
T12 construct: host or cells: HEK293 or CHO
Method in brief: as §1

[16] = biological target: T13, Cav2.2 (Homo sapiens, UniProt Q00975); experiment: cell-based; conditions: 100% = no change, <100% = inhibition
T13 construct: host or cells: HEK293 or CHO
Method in brief: as §1

[17] = biological target: T14, Cav2.1 (Homo sapiens, UniProt O00555); experiment: cell-based; conditions: 100% = no change, <100% = inhibition
T14 construct: host or cells: HEK293 or CHO
Method in brief: as §1

[18] = biological target: T15, TRPV1 (Homo sapiens, UniProt Q8NER1); experiment: Ion channel panel (IonWorks Barracuda): TRPV1; type: cell-based; conditions: 100% = no change, <100% = inhibition
T15 construct: host or cells: HEK293 or CHO
Method in brief: as §1

[19] = first of two Nav1.7 columns (probably TP1)
[20] = second of two Nav1.7 columns (probably TP2)
[21] = first of two Nav1.5 columns (probably TP1)
[22] = second of two Nav1.5 columns (probably TP2)

25 (GSACLAEYQKCEGSTVPCCPGLSCSAGRFRKTKLCTK) [compound 25]
Activity of GABA with peptide, expressed as a percentage of the reference compound ([1]; peptide at 0.2 μM): 111% | Activity of GABA with peptide (percentage of the reference compound) ([1]; peptide at 20 μM): 98% | Activity of Kir2.1 with peptide, expressed as a percentage of the reference compound ([2]; peptide at 0.2 μM): 79% | Activity of Kir2.1 with peptide (percentage of the reference compound) ([2]; peptide at 20 μM): 98% | Activity of a4b2 with peptide, expressed as a percentage of the reference compound ([3]; peptide at 0.2 μM): 73% | Activity of a4b2 with peptide (percentage of the reference compound) ([3]; peptide at 20 μM): 75% | Activity of Nav1.7 with peptide, expressed as a percentage of the reference compound [4, 19]: 66% | Activity of Nav1.7 with peptide, expressed as a percentage of the reference compound [4, 20]: 54% | Activity of Nav1.7 with peptide (percentage of the reference compound) [4, 19]: 90% | Activity of Nav1.7 with peptide (percentage of the reference compound) [4, 20]: 83% | Activity of Nav1.5 with peptide, expressed as a percentage of the reference compound [5, 21]: 76% | Activity of Nav1.5 with peptide, expressed as a percentage of the reference compound [5, 22]: 74% | Activity of Nav1.5 with peptide (percentage of the reference compound) [5, 21]: 88% | Activity of Nav1.5 with peptide (percentage of the reference compound) [5, 22]: 87% | Activity of hERG with peptide, expressed as a percentage of the reference compound ([6]; peptide at 0.2 μM): 76% | Activity of hERG with peptide (percentage of the reference compound) ([6]; peptide at 20 μM): 79% | Activity of a3b4 with peptide, expressed as a percentage of the reference compound ([7]; peptide at 0.2 μM): 105% | Activity of a3b4 with peptide (percentage of the reference compound) ([7]; peptide at 20 μM): 91% | Activity of NR2A with peptide, expressed as a percentage of the reference compound ([8]; peptide at 0.2 μM): 94% | Activity of NR2A with peptide (percentage of the reference compound) ([8]; peptide at 20 μM): 106% | Activity of Kv1.3 with peptide, expressed as a percentage of the reference compound ([9]; peptide at 0.2 μM): 74% | Activity of Kv1.3 with peptide (percentage of the reference compound) ([9]; peptide at 20 μM): 87% | Activity of Kv1.1 with peptide, expressed as a percentage of the reference compound ([10]; peptide at 0.2 μM): 69% | Activity of Kv1.1 with peptide (percentage of the reference compound) ([10]; peptide at 20 μM): 77% | Activity of Kv1.2 with peptide, expressed as a percentage of the reference compound ([11]; peptide at 0.2 μM): 72% | Activity of Kv1.2 with peptide (percentage of the reference compound) ([11]; peptide at 20 μM): 85% | Activity of NR2B with peptide, expressed as a percentage of the reference compound ([12]; peptide at 0.2 μM): 99% | Activity of NR2B with peptide (percentage of the reference compound) ([12]; peptide at 20 μM): 94% | Activity of 5HT3a with peptide (percentage of the reference compound) [13]: 94% | Activity of 5HT3a with peptide, expressed as a percentage of the reference compound [13]: 82% | Activity of TRPA1 with peptide, expressed as a percentage of the reference compound ([14]; peptide at 0.2 μM): 124% | Activity of TRPA1 with peptide (percentage of the reference compound) ([14]; peptide at 20 μM): 129% | Activity of Kv2.1 with peptide, expressed as a percentage of the reference compound ([15]; peptide at 0.2 μM): 88% | Activity of Kv2.1 with peptide (percentage of the reference compound) ([15]; peptide at 20 μM): 107% | Activity of Cav2.2 with peptide, expressed as a percentage of the reference compound ([16]; peptide at 0.2 μM): 111% | Activity of Cav2.2 with peptide (percentage of the reference compound) ([16]; peptide at 20 μM): 111% | Activity of Cav2.1 with peptide, expressed as a percentage of the reference compound ([17]; peptide at 0.2 μM): 89% | Activity of Cav2.1 with peptide (percentage of the reference compound) ([17]; peptide at 20 μM): 109% | Activity of TRPV1 with peptide, expressed as a percentage of the reference compound ([18]; peptide at 0.2 μM): 117% | Activity of TRPV1 with peptide (percentage of the reference compound) ([18]; peptide at 20 μM): 113%
